Assay results from EP4725501A1 (Staidson (Beijing) Biopharmaceuticals Co., Ltd., dated 2026).

Assays:
[1] = biological target: T1, human MASP3-His (human, UniProt P48740-2 20-728); test: cell-based or functional assay
T1 sequence (looked up): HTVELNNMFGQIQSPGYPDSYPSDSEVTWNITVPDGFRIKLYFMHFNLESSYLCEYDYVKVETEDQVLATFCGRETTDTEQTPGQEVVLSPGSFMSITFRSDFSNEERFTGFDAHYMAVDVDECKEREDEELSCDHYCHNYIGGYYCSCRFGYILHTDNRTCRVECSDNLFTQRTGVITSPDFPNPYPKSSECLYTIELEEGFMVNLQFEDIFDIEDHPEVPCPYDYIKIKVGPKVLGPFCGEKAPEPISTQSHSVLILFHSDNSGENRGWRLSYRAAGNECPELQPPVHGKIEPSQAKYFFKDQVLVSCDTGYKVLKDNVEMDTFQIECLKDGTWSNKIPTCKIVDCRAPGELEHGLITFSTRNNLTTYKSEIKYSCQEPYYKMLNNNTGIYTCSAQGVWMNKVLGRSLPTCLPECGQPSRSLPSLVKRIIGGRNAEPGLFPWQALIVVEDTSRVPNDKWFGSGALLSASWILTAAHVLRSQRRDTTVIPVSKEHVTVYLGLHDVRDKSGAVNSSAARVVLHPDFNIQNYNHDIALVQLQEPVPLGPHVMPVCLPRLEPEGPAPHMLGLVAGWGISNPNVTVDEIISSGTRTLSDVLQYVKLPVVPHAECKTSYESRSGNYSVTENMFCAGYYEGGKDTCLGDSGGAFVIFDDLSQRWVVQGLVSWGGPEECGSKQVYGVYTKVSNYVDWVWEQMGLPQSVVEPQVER

[2] = biological target: T2, MASP3 in Factor D depleted human plasma (human, UniProt P48740-2 20-728); test: cell-based or functional assay
T2 sequence (looked up): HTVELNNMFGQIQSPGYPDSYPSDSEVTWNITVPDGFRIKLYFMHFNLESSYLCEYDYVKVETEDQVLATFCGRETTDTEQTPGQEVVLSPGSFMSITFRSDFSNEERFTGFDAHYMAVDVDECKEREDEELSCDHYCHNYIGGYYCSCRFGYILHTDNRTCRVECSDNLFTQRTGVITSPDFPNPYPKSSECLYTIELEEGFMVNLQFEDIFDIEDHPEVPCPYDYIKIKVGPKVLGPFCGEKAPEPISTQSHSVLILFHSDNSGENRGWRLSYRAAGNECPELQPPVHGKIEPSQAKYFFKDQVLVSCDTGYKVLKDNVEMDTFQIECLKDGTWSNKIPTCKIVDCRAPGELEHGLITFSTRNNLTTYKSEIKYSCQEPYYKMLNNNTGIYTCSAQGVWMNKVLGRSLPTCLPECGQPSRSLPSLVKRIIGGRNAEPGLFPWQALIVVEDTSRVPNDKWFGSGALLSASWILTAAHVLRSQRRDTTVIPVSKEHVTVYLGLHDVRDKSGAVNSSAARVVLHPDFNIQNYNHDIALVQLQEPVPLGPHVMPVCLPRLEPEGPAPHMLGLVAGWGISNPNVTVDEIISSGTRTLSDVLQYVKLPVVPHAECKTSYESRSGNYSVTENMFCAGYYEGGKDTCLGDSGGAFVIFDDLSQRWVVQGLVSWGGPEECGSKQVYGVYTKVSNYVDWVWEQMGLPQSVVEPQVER

[3] = biological target: T1, human MASP3-His; test: SPR (Biacore 8K); antibody immobilized on CM5 chip, antigen as analyte
[4] = biological target: T3, mouse MASP3-His (mouse, UniProt P98064-2 25-733); test: as above
T3 construct: not shown: His tag added to the terminal
T3 sequence (looked up): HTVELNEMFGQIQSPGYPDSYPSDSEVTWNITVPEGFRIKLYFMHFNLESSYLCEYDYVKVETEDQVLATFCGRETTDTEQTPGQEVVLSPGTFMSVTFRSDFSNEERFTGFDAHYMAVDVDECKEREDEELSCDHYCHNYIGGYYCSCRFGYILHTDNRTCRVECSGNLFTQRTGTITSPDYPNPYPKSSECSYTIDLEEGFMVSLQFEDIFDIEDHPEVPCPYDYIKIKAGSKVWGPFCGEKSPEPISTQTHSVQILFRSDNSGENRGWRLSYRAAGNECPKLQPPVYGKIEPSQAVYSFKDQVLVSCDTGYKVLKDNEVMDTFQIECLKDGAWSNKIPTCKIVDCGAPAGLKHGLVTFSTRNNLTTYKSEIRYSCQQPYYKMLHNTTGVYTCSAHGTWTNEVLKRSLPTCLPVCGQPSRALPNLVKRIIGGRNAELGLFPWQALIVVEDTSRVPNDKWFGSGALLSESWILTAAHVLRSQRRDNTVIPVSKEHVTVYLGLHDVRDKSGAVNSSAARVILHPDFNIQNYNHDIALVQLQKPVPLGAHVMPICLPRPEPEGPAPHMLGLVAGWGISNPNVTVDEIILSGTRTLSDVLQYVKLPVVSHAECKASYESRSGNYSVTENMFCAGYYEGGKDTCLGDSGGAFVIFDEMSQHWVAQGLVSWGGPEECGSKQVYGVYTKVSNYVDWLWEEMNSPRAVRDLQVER

[5] = biological target: T4, monkey MASP3-His (monkey); test: as above
T4 construct: monkey species not further specified

B1: M3-K2-8 (antibody, V domains shown)
VH: QVQLVQSGAEVKKPGASVKVSCKASGYTFTGKWIEWVRQAPGQGLEWMGEILPGSGSTDYNERFKDRATFTADTSTSTAYMELSSLRSEDTAVYYCVRSEDLWGQGTLVTVSS
VL: DIVLTQSPDSLAVSLGERATINCKSSQNLFNSRTRKNYLAWFQQKPGQSPKLLIYWASTRESGVPDRFSGSGSGTDFTLTISSLQAEDVAVYYCKQSYIPFTFGGGTKVEIK
notes: Humanized M3-K2
IC50 (nM), inhibition of MASP3 enzyme activity (fluorescent tripeptide cleavage) [1]: 21.9 nM
Inhibit hemolysis IC50 [2]: 2.11 nM
Kd [3]: 1.04 nM
koff [3]: 0.000189 s⁻¹
kon [3]: 182000 M⁻¹ s⁻¹
Kd [4]: 0.77 nM
koff [4]: 0.000137 s⁻¹
kon [4]: 178000 M⁻¹ s⁻¹
Kd [5]: 0.77 nM
koff [5]: 0.000137 s⁻¹
kon [5]: 178000 M⁻¹ s⁻¹

B2: M3-K1-5 (antibody, V domains shown)
VH: QVQLVQSGAEVKKPGASVKVSCKASGYTFTGKWIEWVRQAPGQGLEWMGEILPGSGSTDYNERFKDRVTFTADTSTSTVYMELSSLRSEDTAVYYCVRSEDLWGQGTLVTVSS
VL: DIVMTQSPDSLAVSLGERATINCKSSQSLLNSVTRKTYLAWYQQKPGQPPKLLIYWASTRESGVPDRFSGSGSGTDFTLTISSLQAEDVAVYYCKQSYTLPTFGGGTKVEIK
IC50 (nM), inhibition of MASP3 enzyme activity (fluorescent tripeptide cleavage) [1]: 27.9 nM

B3: M3-K1-1 (antibody, V domains shown)
VH: QVQLVQSGAEVKKPGASVKVSCKASGYTFTGKWIEWVRQAPGQGLEWIGEILPGSGSTDYNERFKDRATFTADTSTSTAYMELSSLRSEDTAVYYCVRSEDLWGQGTLVTVSS
VL: DIVMTQSPDSLAVSLGERATINCKSSQSLLNSVTRKTYLAWYQQKPGQPPKLLIYWASTRESGVPDRFSGSGSGTDFTLTISSLQAEDVAVYYCKQSYTLPTFGGGTKVEIK
IC50 (nM), inhibition of MASP3 enzyme activity (fluorescent tripeptide cleavage) [1]: 31.5 nM

B4: M3-K1-4 (antibody, V domains shown)
VH: QVQLVQSGAEVKKPGASVKVSCKASGYTFTGKWIEWVRQAPGQGLEWMGEILPGSGSTDYNERFKDRATFTADTSTSTAYMELSSLRSEDTAVYYCVRSEDLWGQGTLVTVSS
VL: DIVMTQSPDSLAVSLGERATINCKSSQSLLNSVTRKTYLAWYQQKPGQSPKLLIYWASTRESGVPDRFSGSGSGTDFTLTISSLQAEDVAVYYCKQSYTLPTFGGGTKVEIK
IC50 (nM), inhibition of MASP3 enzyme activity (fluorescent tripeptide cleavage) [1]: 29.9 nM

B5: M3-K1-2 (antibody, V domains shown)
VH: QVQLVQSGAEVKKPGASVKVSCKASGYTFTGKWIEWVRQAPGQGLEWIGEILPGSGSTDYNERFKDRATFTADTSTSTAYMELSSLRSEDTAVYYCVRSEDLWGQGTLVTVSS
VL: DIVMTQSPDSLAVSLGERATINCKSSQSLLNSVTRKTYLAWYQQKPGQSPKLLIYWASTRESGVPDRFSGSGSGTDFTLTISSLQAEDVAVYYCKQSYTLPTFGGGTKVEIK
IC50 (nM), inhibition of MASP3 enzyme activity (fluorescent tripeptide cleavage) [1]: 31.2 nM

B6: M3-K2-9 (antibody, V domains shown)
VH: QVQLVQSGAEVKKPGASVKVSCKASGYTFTGKWIEWVRQAPGQGLEWMGEILPGSGSTDYNERFKDRATFTADTSTSTAYMELSSLRSEDTAVYYCVRSEDLWGQGTLVTVSS
VL: DIVMTQSPDSLAVSLGERATINCKSSQNLFNSRTRKNYLAWFQQKPGQSPKLLIYWASTRESGVPDRFSGSGSGTDFTLTISSLQAEDVAVYYCKQSYIPFTFGGGTKVEIK
IC50 (nM), inhibition of MASP3 enzyme activity (fluorescent tripeptide cleavage) [1]: 33.7 nM

B7: M3-K2-10 (antibody, V domains shown)
VH: QVQLVQSGAEVKKPGASVKVSCKASGYTFTGKWIEWVRQAPGQGLEWMGEILPGSGSTDYNERFKDRVTFTADTSTSTVYMELSSLRSEDTAVYYCVRSEDLWGQGTLVTVSS
VL: DIVLTQSPDSLAVSLGERATINCKSSQNLFNSRTRKNYLAWFQQKPGQSPKLLIYWASTRESGVPDRFSGSGSGTDFTLTISSLQAEDVAVYYCKQSYIPFTFGGGTKVEIK
IC50 (nM), inhibition of MASP3 enzyme activity (fluorescent tripeptide cleavage) [1]: 37 nM

B8: M3-K1-6 (antibody, V domains shown)
VH: QVQLVQSGAEVKKPGASVKVSCKASGYTFTGKWIEWVRQAPGQGLEWMGEILPGSGSTDYNERFKDRVTFTADTSTSTVYMELSSLRSEDTAVYYCVRSEDLWGQGTLVTVSS
VL: DIVMTQSPDSLAVSLGERATINCKSSQSLLNSVTRKTYLAWYQQKPGQSPKLLIYWASTRESGVPDRFSGSGSGTDFTLTISSLQAEDVAVYYCKQSYTLPTFGGGTKVEIK
IC50 (nM), inhibition of MASP3 enzyme activity (fluorescent tripeptide cleavage) [1]: 28.2 nM

B9: M3-K2-7 (antibody, V domains shown)
VH: QVQLVQSGAEVKKPGASVKVSCKASGYTFTGKWIEWVRQAPGQGLEWIGEILPGSGSTDYNERFKDRATFTADTSTSTAYMELSSLRSEDTAVYYCVRSEDLWGQGTLVTVSS
VL: DIVMTQSPDSLAVSLGERATINCKSSQNLFNSRTRKNYLAWFQQKPGQSPKLLIYWASTRESGVPDRFSGSGSGTDFTLTISSLQAEDVAVYYCKQSYIPFTFGGGTKVEIK
IC50 (nM), inhibition of MASP3 enzyme activity (fluorescent tripeptide cleavage) [1]: 25.2 nM

B10: M3-K2-5 (antibody, V domains shown)
VH: QVQLVQSGAEVKKPGASVKVSCKASGYTFTGKWIEWVRQAPGQGLEWMGEILPGSGSTDYNERFKDRVTFTADTSTSTVYMELSSLRSEDTAVYYCVRSEDLWGQGTLVTVSS
VL: EIVLTQSPATLSVSPGERATLSCKSSQNLFNSRTRKNYLAWFQQKPGQSPRLLIYWASTRESGIPARFSGSGSGTEFTLTISSLQSEDFAVYYCKQSYIPFTFGGGTKVEIK
Inhibit hemolysis IC50 [2]: 3.41 nM

B11: M3-K1-3 (antibody, V domains shown)
VH: QVQLVQSGAEVKKPGASVKVSCKASGYTFTGKWIEWVRQAPGQGLEWMGEILPGSGSTDYNERFKDRATFTADTSTSTAYMELSSLRSEDTAVYYCVRSEDLWGQGTLVTVSS
VL: DIVMTQSPDSLAVSLGERATINCKSSQSLLNSVTRKTYLAWYQQKPGQPPKLLIYWASTRESGVPDRFSGSGSGTDFTLTISSLQAEDVAVYYCKQSYTLPTFGGGTKVEIK
IC50 (nM), inhibition of MASP3 enzyme activity (fluorescent tripeptide cleavage) [1]: 24.2 nM

B12: M3-K2-11 (antibody, V domains shown)
VH: QVQLVQSGAEVKKPGASVKVSCKASGYTFTGKWIEWVRQAPGQGLEWMGEILPGSGSTDYNERFKDRVTFTADTSTSTVYMELSSLRSEDTAVYYCVRSEDLWGQGTLVTVSS
VL: DIVMTQSPDSLAVSLGERATINCKSSQNLFNSRTRKNYLAWFQQKPGQSPKLLIYWASTRESGVPDRFSGSGSGTDFTLTISSLQAEDVAVYYCKQSYIPFTFGGGTKVEIK
notes: Humanized M3-K2
IC50 (nM), inhibition of MASP3 enzyme activity (fluorescent tripeptide cleavage) [1]: 26.4 nM
Inhibit hemolysis IC50 [2]: 2.2 nM
Kd [3]: 1.34 nM
koff [3]: 0.000218 s⁻¹
kon [3]: 163000 M⁻¹ s⁻¹
Kd [4]: 0.86 nM
koff [4]: 0.000145 s⁻¹
kon [4]: 168000 M⁻¹ s⁻¹
Kd [5]: 0.86 nM
koff [5]: 0.000144 s⁻¹
kon [5]: 167000 M⁻¹ s⁻¹

B13: M3-K2-6 (antibody, V domains shown)
VH: QVQLVQSGAEVKKPGASVKVSCKASGYTFTGKWIEWVRQAPGQGLEWIGEILPGSGSTDYNERFKDRATFTADTSTSTAYMELSSLRSEDTAVYYCVRSEDLWGQGTLVTVSS
VL: DIVLTQSPDSLAVSLGERATINCKSSQNLFNSRTRKNYLAWFQQKPGQSPKLLIYWASTRESGVPDRFSGSGSGTDFTLTISSLQAEDVAVYYCKQSYIPFTFGGGTKVEIK
notes: Humanized M3-K2
IC50 (nM), inhibition of MASP3 enzyme activity (fluorescent tripeptide cleavage) [1]: 29.5 nM
Inhibit hemolysis IC50 [2]: 3.18 nM
Kd [3]: 1.45 nM
koff [3]: 0.00025 s⁻¹
kon [3]: 173000 M⁻¹ s⁻¹
Kd [4]: 0.887 nM
koff [4]: 0.000149 s⁻¹
kon [4]: 168000 M⁻¹ s⁻¹
Kd [5]: 0.887 nM
koff [5]: 0.000147 s⁻¹
kon [5]: 165000 M⁻¹ s⁻¹
